Values belong to the substance of their own block, whether it stands above or below them.
Key:
[1] = molecular target: 70S ribosomes (E. coli JE28, with endogenous L7/L12) (E. coli (endogenous in JE28)) (UniProt P0A7K2); assay: other fluorescence titration
[2] = molecular target: L7/L12-depleted 70S ribosomes reconstituted with recombinant L12 (E. coli | E. coli (endogenous in JE28)) (UniProt P0A7K2); assay: co-sedimentation
[3] = molecular target: L7/L12-depleted 70S ribosomes (E. coli (endogenous in JE28)) (UniProt P0A7J3); assay: co-sedimentation
[4] = molecular target: L7/L12-depleted 70S ribosomes (E. coli (endogenous in JE28)) (UniProt P0A7J3); assay: SEC
[5] = molecular target: recombinant ribosomal protein L12 (E. coli) (UniProt P0A7K2); assay: SEC

Chain of UniProt P0A7J3 (P0A7J3 whole entry, looked up): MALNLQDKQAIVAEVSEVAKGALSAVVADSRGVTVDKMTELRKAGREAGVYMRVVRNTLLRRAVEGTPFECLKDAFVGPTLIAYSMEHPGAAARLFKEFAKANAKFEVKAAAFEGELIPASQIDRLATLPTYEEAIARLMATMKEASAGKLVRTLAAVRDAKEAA

Substance: EF-G-591 coupled with 5-iodoacetomido fluorescein (from UniProt P0A6M8 1-704) (enzyme)
- Kd [1]: 23 nM

Substance: release factor 3 (from UniProt P0A7I4 1-529) (enzyme)
- percent binding relative to complete 70S [2]: 100%

Substance: recombinant ribosomal protein L12 (from UniProt P0A7K2 1-121) (natural protein)
- stoichiometry N [5]: 2

Other lines, results leading:

- percent binding relative to complete 70S [2]: 100%
Substance: initiation factor 2 (from UniProt P0A705 1-890) (enzyme)

- percent binding retained [3]: > 50%
- percent binding retained [4]: > 50%
Substance: leader peptidase A (from UniProt P60785 1-599) (enzyme)

- percent co-eluted with the ribosomes [4]: 20%
Substance: elongation factor G (from UniProt P0A6M8 1-704) (enzyme)
